B1: TPR t1 (parent)
chain: GACCAAUCUGCCCUCAGAGCUCGAGAACAUCUUCGGAUGCAGAGGAGGCAGGCUUCGGUGGCGCGAUAGCGCCAACGUCCUCAACCUCCAAUGCAUCCCACCACAUGAUGAUGCCUGAAGAGCCUUGGUUUUUUG

Variants of: B1
Assay: polymerase ribozyme fitness, log enrichment relative to wild type (log ratio); higher = more active; in vitro selection for triplet polymerase activity
In short: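 In triplicate, a single round of in vitro selection was run on each mutant library, PCR-built and transcribed, covering one subunit of a heterodimeric triplet polymerase ribozyme. Frozen incubation at −7 °C followed annealing with a biotinylated primer, partner subunit and triplets, and extended constructs were then gel-excised, streptavidin-captured and taken through RT-PCR. Fitness is the logarithm of genotype enrichment over wild-type enrichment, from inverse-variance-weighted replicate averages of Illumina-sequenced inputs and outputs. […] only genotypes with ≥10 input reads and ≥1 read per output were kept.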

Variant | polymerase ribozyme fitness (log ratio)
U55C A83G C85U C124A | 0.55
U7G C53G | -0.551
G44C C80A G110U C124A | -6.53
A29G G58C G120U | -1.73
C104A U112G C123G | -1.23
G10C C49G U81C G120C | -4.69
G63A A84U U92G G117A | -6.18
U9A C12U A27C C53U | -2.63
C53U C114U | -1.76
U96A C123A | -1.45
A118U U130G | -0.458
C82G U129G | -1.36
C34G C101U | -6.46
U14G U55C C70A G135U | -4.4
C11G G36A G63C | -1.16
C64U U87G G113A | -0.485
G42U G45A G63C | -1.98
C79A C82G U112A | -1.75
A74G A100U G128U | -3.08
U9A U30C G47U | -3.54
C40U C73U G113A | -1.98
G25A A74U A100C U109A U130A | -6.43
C56U C72G A83G C123U | -1.18
G25C G47U C64G U109A U133C | -6.25

Variant | polymerase ribozyme fitness (log ratio)
A37U C72A C73U G117U C124A | -1.66
C115A A118G | -0.852
C49U G107A | -3.94
G45C U96A | -1.79
C15U A37C C53A | -1.72
C76G C88A C101A U130A | -1.71
G69U G117C U130C | -2.79
C22G C34G C70A C123A | -6.39
G10C C80A U130G | -3.78
U33G G39U A50U A84U A91C C114A | -5.3
A27G G51U G58A U78C A84C | -5.35
G45A C73A G113U | -4.75
C79A G128C | -3.31
G128A | -1.65
A27C A50G G63U G110C U125G | -6.71
G45C G51A | -3.29
C72U C102A G128A | -4.14
C20A A27C | -4.9
U21G G47C C85G G93C A100U C101U | -5.69
A5U A18C C124U | -0.683
A29U G52C C73G U132C G135U | -3.19
A74G C102U | -2.11
C56U C70A | -3.82
C70G C104A | -4.9

Variant | polymerase ribozyme fitness (log ratio)
A27U A83U | -3.7
C49A G71C C98U | -2.91
A27U C76A C79A | -4.71
A6U U92A | -2.82
C70U C89U | -1.12
C4U U87C | -0.694
C124G U131G | 1.33
U7G G69C A100U | -2.07
C20G A118G | -5.96
C12A A16G G36U | -4.37
C40U A41C C79A U92A | -5.35
C15A A18U C53A U112C G127A | -5.64
G35A U55G | -4.9
C34A G45C C53A G60U C124A | -1.69
C3A C8U A46U G63C U130C | -1.24
U9G C12G A91C G127C U129A | -2.32
G44A G113C | -3.16
A74U U92A | -3.82
G39U C70U | -2.34
A5U C12U U21A A84G | -2.37
C11U C15A A29C C34A G71U C79U C104A G117U | -6.92
C15A G71C C97G G117U | -5.07
U14C G63C | -2.35
A66G C76A | -1.89

Variant | polymerase ribozyme fitness (log ratio)
C8A G113U | -1.81
C15G U132A | -2.31
G69A U129A | -3.9
A41U A46C A91G U112A | -3.27
C40U C70G C98U A119U | -3.66
U7A G47C | -1.26
C11A G107U G122A | -3.88
C76A A118G | -0.854
G63U C89U G93A G120A | -1.65
A46G A66G | -1.48
G61U U78C | -0.574
U33G C97A | -5.28
C40U U67C G71U C89U U109A G117C A121U G128A U134A | -5.54
U9C C56A A83C | 0.00737
G93A C97U G127C | -2.77
G42A U106A G120U U132A | -2.41
A29C U130C | -2.27
C13G G117C | -4.58
G44A G51U A121G | -3.43
C8U C76A A118G | -0.712
C22U C72A C79A | -5.61
A27G A121G | 1.32
C15U C99U | -3.99
G47C A111G | -2.34

Variant | polymerase ribozyme fitness (log ratio)
A6C C97U | -1.01
C11U C79U U81C C94A G120U | -4.75
C115U A118C | -2.16
A6C G47C G71U | -2.53
U30G G69U G120A U126A U131G | -4.39
C13U A43G G60A U92G U116C | -3.1
C4U G63C C76A A91C A100C C115G C123A | -4.89
C3U G44A | -1.11
G61A C82U | 0.141
G58A C64U A66U U130A | -2.13
G117U G120A U132A | -1.33
C11U C15A A26G C53G G61U G120C | -4.04
G51C C53A | -4.19
G17U G52U A83G C85U G120U | -3.18
C86G C94U G110A U129A | -4.63
C40G C79A | -2.58
U32C G36A G60U | -2.12
G60A C79A G110A | -3.84
C11U A43U G110U U132A | -3.03
A2U A6U G120A | 0.00399
C3A C89A | -2.07
G42C C102A | -4.06
G19A C62U U78C G127C | -4.4
G45U A68G | -4.43

Variant | polymerase ribozyme fitness (log ratio)
G51U C72A | -2.55
A27G G113U | -3.25
G63C C86U G120A | -0.703
G10U G42A G45U | -3.02
G19U C70U C94A C114U | -2.13
C11A C49G G60A A75U G93U | -3.77
A68G C73G U129C | -5.86
G35U G39A C80G C97U C114A | -6.51
G35U U78A C86U G93A G122A C123A | -6.42
C8A C13U C20A C40A C49A A111G G117A U130C | -5.75
C70U C86U | -1.4
A5C C82A C101G | -3.77
U7A G47A U96A | -1.96
A46G C73A A108G | -2.82
G19U C70A | -4.07
G45C A118G A121U | -1.69
C15A U96A | -2.85
C62A A66U C73U A95C C123U | -5.94
A50G C70U C72G | -3.42
U54A G61A | 0.266
C22A G61U C102A G122A | -5.53
G19U G71A | -3.31
U54A C72A C73U A91C C115U U129A | -4.31
C70A G120U | -1.5

Variant | polymerase ribozyme fitness (log ratio)
U21A A29C G48A | -3.86
G48U A83G C97U C104A G120A | -3.43
A27G A100U | -3.23
C4U A50G C62U G110A | -1.24
A18U G93C C97U G128U | -5.92
A6C G19C A43U A50C U96G | -4.2
C40U G44U U78A C89A A111C G117A G135C | -3.17
C3A U21C U96C C124G | 0.974
U7A A84C U116C | -0.218
G71A U78C C114G | -5.04
C86U U112C | 0.942
G47U G61A | -0.861
U32C G36A C64A A111G | -5.64
U54G U59C | -1.85
A26U G60C C86G | -4.99
U55C G71A A84U C102A C104U | -3.41
C15A A26G G44U C89A G120C | -5.42
A46G G69U U78A C94U C115A G127C | -2.24
U7G G65U C72U C73U U112G | -6.23
C12A U59G | -0.837
C62A C114U | -2.2
C12U C20A C56A U116G | -4.71
C20U C70A | -3.13

Source: the RNAGym collection of RNA variant scans (doi:10.1073/pnas.2313332121)
